This note sets out measurements from US20200354475A1 (KITE PHARMA, published 2020).

This test addresses T1, CAR comprising the anti-CD19 scFv FMC63 (SEQ ID NO: 1).
T1 construct: also called FMC63 CAR; CAR presenting the anti-CD19 scFv FMC63; not shown: rest of the CAR (hinge, transmembrane and signalling domains) is not described for the constructs used
Nature of the test: immunohistochemistry on fixed cell pellets of CAR T cells presenting the FMC63 scFv, PBMC as control. As to the method: Several antibodies disclosed herein, (Clones 7 and 13) were assessed with respect to their ability to function as reagents in immunohistochemistry (IHC) studies. To create the fixed cell pellets for IHC staining, ˜2e6 CAR T cells presenting the anti-CD19 scFv FMC63 (SEQ ID NO: 1) were centrifuged and washed with PBS. The cells were resuspended in PBS containing 0.45% paraformaldehyde (PFA) and incubated on a shaking platform for 2 hours at room temperature. After the incubation, the cells were washed once more with PBS and resuspended in PBS with 5% BSA.

T1 sequence (chain, as listed by the source): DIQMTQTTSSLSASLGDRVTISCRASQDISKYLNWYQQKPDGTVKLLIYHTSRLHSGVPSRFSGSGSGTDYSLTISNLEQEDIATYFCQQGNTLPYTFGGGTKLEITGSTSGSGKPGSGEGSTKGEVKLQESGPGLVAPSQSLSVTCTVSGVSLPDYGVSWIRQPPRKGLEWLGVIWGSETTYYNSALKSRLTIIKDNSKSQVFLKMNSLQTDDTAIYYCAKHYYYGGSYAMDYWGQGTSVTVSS

B1: Clone 7 (antibody, V domains shown)
VH: QEQLEESGGDLVKPGGTLTVTCKASGFSFSNNGICWVRQAPGKGLEWIGCLYVGSSDTTYYASWAKGRFTISKSSSTTVTLQMTSLTVADTATYFCTINLGLWGPGTLVTVSS
VL: AIVVTQTPSSKSVPVGGTVTINCQASESVYNSDWLAWYQQKPGQPPKQLIYAASTLASGVPSRFKGSGSGTQFTLTISDVVCDDAATYYCAGYKSSSTDGIAFGGGTEVVVKG
notes: Rabbit monoclonal antibody from a hybridoma; also called antibody Clone 7
On to B1, for which the binding result is “binds”.
